Legend:
[1] = system: B16BL6 melanoma; experiment: Primary tumor growth of B16BL6 melanoma in mice treated with heparinases; format: in vivo
Excerpt: Heparinases I and III, which have very distinct substrate specificities for cleaving HLGAGs, were employed as tools to investigate the role of HLGAGs in tumor growth and metastasis. While heparinase I cleaves at the highly sulfated regions of HLGAGs, heparinase III only cleaves at the under-sulfated regions of the polysaccharide chain, thereby rendering these enzymes powerful tools to investigate in vivo and in vitro roles of HLGAGs, in development, morphogenesis, angiogenesis etc. To examine the roles of HLGAGs in tumor growth and metastasis, we used B16BL6 melanoma as a model system and treated tumor-bearing mice with either heparinases I or III to investigate both primary tumor growth as well as tumor metastasis. Consistent with the current paradigm, heparinase I accelerated tumor growth (FIG. 8). At a dosage of 0.5 mg/kg/day of heparinase I, tumor growth was increased by about 39%. […] Inhibition of primary tumor growth by heparinase III was first observed at 2 mg/kg per day. Tumor growth was inhibited by 73% at 12 mg/kg per day, the maximum dosage tested in the study (FIG. 8).
Mice, 15 days after tumor implantation with B16BL6 melanoma, were examined. 4×10^5 log growth phase B16BL6 melanoma cells in 0.1 ml PBS were injected to the flank of C57BL/6 mice on day 1. Daily injection of 0.1 ml of PBS, heat inactivated hep III or active heparinase III (2 mg/ml, recombinantly expressed, purified, buffer exchanged with PBS, and concentrated) started at the day 4 and continued throughout the experiment. At day 7, osmotic pumps (100 μl capacity delivering at 0.5 μl per hour) containing PBS or 3 mg/ml hep III were implanted subcutaneously at a place remote from the tumor site. Mice were sacrificed at day 15.
FIG. 8 depicts the tumor volume of the tumors isolated from the mice described above. Tumor volume was measured daily after day 7 with a caliper and calculated with the formula [volume=0.52×(width)^2×(length)].

[2] = system: B16BL6 melanoma cells; experiment: Lung metastasis of heparinase treated B16BL6 cells after tail vein injection; format: in vivo, mice; conditions: cells treated 30 min at 37° C. before tail vein injection; 13 days
Experimental: We next investigated the ability of heparinase treated B16BL6 melanoma cells to metastasize to the lungs. B16BL6 cells in log growth phase were briefly trypsinized and resuspended in PBS to a final concentration of 1×10^6 per ml. Prior to injection, cells were treated with either PBS, hep I […] or hep III […] for 30 min. at 37° C. 0.2 ml cell suspensions (2×10^5 cells) were injected slowly via tail vein. Mice were sacrificed 13 days later and lungs were harvested, rinsed with tap water. The number of nodules on lung surface were counted with the assistance of a dissection microscope. * indicates p<0.05 (Mann-Whitney test).

[3] = system: B16BL6 cells; experiment: Growth in mice of B16BL6 cells after heparinase removal of the HLGAG coat; format: in vivo; conditions: HLGAG coat removed
Excerpt: There are two possible mechanisms by which heparinase may be acting on tumor cells. For instance, heparinase III treatment of cells may result in cells losing their unique surface HLGAG coat and this directly or indirectly may impinge on their ability to grow or metastasize. On the other hand heparinase III treatment of cells may also result in the generation of distinct HLGAG fragments, and these fragments could then directly or indirectly modulate tumor cell function. It was thought that heparinase III may function though either one of these mechanisms or through some combination of these mechanisms. To investigate the mechanisms of action further, we treated B16BL6 cells with either heparinases I or III, to remove the HLGAG coat on the tumor cell surface.
In further support of this conclusion ex vivo digestion of the HLGAG coat present on tumor cells with either heparinase, followed by centrifugation and resuspension in PBS to remove the enzyme and HLGAG fragments released from the cell surface, prior to in vivo injection results in the cells being functionally identical to controls. Thus the released tumor cell HLGAG fragments appear to play the key role in modulating tumor growth and metastasis.

[4] = system: B16BL6 cells; experiment: FGF-induced proliferation of B16BL6 cells in vitro; format: cell-based
[5] = system: Erk-1, 2; experiment: Erk-1, 2 activation in FGF2 stimulated B16BL6 cells (immunoblot); format: cell-based; conditions: enzyme 200 nM 30 min before 50 ng/ml FGF2
Experimental: a. Methods: B16BL6 cells in 10 cm culture dishes were serum starved for 48 hours before stimulation with 50 ng/ml FGF2. Cells were stimulated for 20 minutes before whole cell lysates were prepared with 1 ml modified RIPA buffer containing various enzyme inhibitors (50 mM Tris-HCl, pH 7.4, 1% NP-40, 0.25% Na-deoxycholate, 150 mM NaCl, 1 mM EDTA, 1 mM PMSF, 1 μg/ml aprotinin, leupeptin, and pepstatin, 1 mM activated Na3VO4, 1 mM NaF). Protein concentration in the lysate was determined using the Bio-Rad protein assay kit (BioRad) and adjusted accordingly for electrophoresis analysis. For the heparinase treated groups, cells were treated with either hep I or hep III (200 nM) for 30 min at 37° C. prior to addition of FGF2. The immunoblot was probed with anti-Erk-1, 2 or anti-phospho-Erk-1, 2 antibody (New England Biolabs; MA) and detected by anti-rabbit IgG conjugated to HRP using SuperSignal West Pico Chemiluminescent substrate (Pierce, Ill.).

[6] = system: FGFR1; experiment: FGFR1 phosphorylation in B16BL6 tumor samples; set-up: species or system mice; conditions: mouse, in vivo
Experimental: c. Effect of treatment of tumor with hep I and hep III in FGFR1 activation compared to PBS. Level of phosphorylated FGFR1 in tumor samples was assessed by standard immunoprecipitation followed by Westernblotting with phosphotyrosine specific antibody. Primary B16BL6 tumors were grown and treated as described earlier and at day 15 the tumor was harvested in cold modified RIPA buffer containing enzyme inhibitors and homogenized. The homogenates were past through 25-gauge needle 3 times and centrifuged. The supernatant was adjusted for protein concentration using the Bio-Rad protein assay kit (Bio-Rad). FGFR1 was immunoprecipitated with poly-clonal anti-FGFR1 antibody (Santa Cruz Biotechnology, Inc., CA). Samples were then pelleted, washed, and eluted from the beads by addition of sample buffer and boiled for 3 minutes (Kapila, Y. L., Wang, S. & Johnson, P. W. Mutations in the heparin binding domain of fibronectin in cooperation with the V region induce decreases in pp125(FAK) levels plus proteoglycan-mediated apoptosis via caspases. J Biol Chem 274, 30906-13 (1999).). After electrophoresis, the gel was transferred to nitrocellulose membrane by standard methods. The immunoblot was probed with phosphotyrosine specific antibody conjugated to HRP (RC20; Transduction Laboratories, Lexington, Ky.) and developed with SuperSignal West Pico Chemiluminescent substrate. […]

B1: heparinase III: HLGAG degrading enzyme from Flavobacterium heparinum (EC 4.2.2.8), SEQ ID NO:2; cleaves heparan sulfate (protein, listed as Pedobacter heparinus)
chain: MTTKIFKRIIVFAVIALSSGNILAQSSSITRKDFDHINLEYSGLEKVNKAVAAGNYDDAAKALLAYYREKSKAREPDFSNAEKPADIRQPIDKVTREMADKALVHQFQPHKGYGYFDYGKDINWQMWPVKDNEVRWQLHRVKWWQAMALVYHATGDEKYAREWVYQYSDWARKNPLGLSQDNDKFVWRPLEVSDRVQSLPPTFSLFVNSPAFTPAFLMEFLNSYHQQADYLSTHYAEQGNHRLFEAQRNLFAGVSFPEFKDSPRWRQTGISVLNTEIKKQVYADGMQFELSPIYHVAAIDIFLKAYGSAKRVNLEKEFPQSYVQTVENMIMALISISLPDYNTPMFGDSWITDKNFRMAQFASWARVFPANQAIKYFATDGKQGKAPNFLSKALSNAGFYTFRSGWDKNATVMVLKASPPGEFHAQPDNGTFELFIKGRNFTPDAGVFVYSGDEAIMKLRNWYRQTRIHSTLTLDNQNMVITKARQNKWETGNNLDVLTYTNPSYPNLDHQRSVLFINKKYFLVIDRAIGEATGNLGVHWQLKEDSNPVFDKTKNRVYTTYRDGNNLMIQSLNADRTSLNEEEGKVSYVYNKELKRPAFVFEKPKKNAGTQNFVSIVYPYDGQKAPEISIRENKGNDFEKGKLNLTLTINGKQQLVLVP
- inhibition of tumor growth ([1]; 12 mg/kg per day, maximum dosage tested): 73%
- dosage at which inhibition of primary tumor growth was first observed ([1]; mouse, in vivo): 2 mg/kg per day
- primary tumor growth ([1]; nude mice and C57BL/6 mice, subcutaneous injections): significant inhibition in primary tumor growth
- ability of treated B16BL6 cells to metastasize to the lungs compared to PBS treated cells [2]: significantly less able to metastasize to the lungs
- ability of treated B16BL6 cells to grow in mice compared to untreated cells [3]: no effect
- FGF-induced proliferation of B16BL6 cells [4]: inhibit FGF-induced proliferation
- Erk-1, 2 activation upon FGF2 stimulation [5]: decreased Erk-1, 2 activation
- phosphorylation of FGFR1 in primary tumor [6]: inhibited phosphorylation of FGFR1

Source: patent publication US7939292B2, “Modified heparinase III and methods of sequencing therewith” (Massachusetts Institute of Technology, priority 2000, dated 2011)
